Data taken from US20260201069A1, “ANTIBODIES THAT SPECIFICALLY BIND MODIFIED OLIGONUCLEOTIDES” (Hoffmann-La Roche Inc., priority 2024, published 2026).

Key:
Assay type in all cases: binding
[1] = system: DNA1-Bi; assay: Hybridoma antibody specificity immunoassay; conditions: hybridoma antibody subclones, Table 1-4
From the text: (§1) From two selected animals, spleen cells were fused to Ag8 cells to generate antibody-producing hybridomas using state-of-the-art hybridoma cell technology. After cell fusion, hybridomas were screened for specific reactivity with LNA-containing ASOs using DNA-containing ASOs for specificity evaluation.
(§2) In more detail, from two cell fusions, 3840 initial hybridoma clones resulting in 33 primary hybridoma clones were obtained. Thereof, 11 were selected for further characterization of binding characterization by biomolecular interaction analysis (kinetic and thermodynamic surface plasmon resonance). Five primary hybridoma clones were further processed by subcloning to generate monoclonal hybridoma cell culture clones.
as §1, with “From immunoreactive mice (2 animals selected),” for “From two selected animals,”, “antibody-producing fusion cells” for “antibody-producing hybridomas”
as §2, with “From two” for “In more detail, from two”, “binding properties” for “binding characterization”, “resonance). Finally, 5” for “resonance). Five”, “culture clones (Tables 1-3 and 1-4).” for “culture clones.”

[2] = system: LNA4b-Bi; assay: Hybridoma antibody specificity immunoassay; conditions: hybridoma antibody subclones, Table 1-4
From the text: as §1, §2
as §1, with “From immunoreactive mice (2 animals selected),” for “From two selected animals,”, “antibody-producing fusion cells” for “antibody-producing hybridomas”
as §2, with “From two” for “In more detail, from two”, “binding properties” for “binding characterization”, “resonance). Finally, 5” for “resonance). Five”, “culture clones (Tables 1-3 and 1-4).” for “culture clones.”

[3] = system: DNA4b-Bi; assay: Hybridoma antibody specificity immunoassay; conditions: hybridoma antibody subclones, Table 1-4
From the text: as §1, §2
as §1, with “From immunoreactive mice (2 animals selected),” for “From two selected animals,”, “antibody-producing fusion cells” for “antibody-producing hybridomas”
as §2, with “From two” for “In more detail, from two”, “binding properties” for “binding characterization”, “resonance). Finally, 5” for “resonance). Five”, “culture clones (Tables 1-3 and 1-4).” for “culture clones.”

[4] = system: DNA2-Bi; assay: Hybridoma antibody specificity immunoassay; conditions: hybridoma antibody subclones, Table 1-4
From the text: as §1, §2
as §1, with “From immunoreactive mice (2 animals selected),” for “From two selected animals,”, “antibody-producing fusion cells” for “antibody-producing hybridomas”
as §2, with “From two” for “In more detail, from two”, “binding properties” for “binding characterization”, “resonance). Finally, 5” for “resonance). Five”, “culture clones (Tables 1-3 and 1-4).” for “culture clones.”

[5] = system: LNA1-Bi; assay: Hybridoma antibody specificity immunoassay; conditions: hybridoma antibody subclones, Table 1-4
From the text: as §1, §2
as §1, with “From immunoreactive mice (2 animals selected),” for “From two selected animals,”, “antibody-producing fusion cells” for “antibody-producing hybridomas”
as §2, with “From two” for “In more detail, from two”, “binding properties” for “binding characterization”, “resonance). Finally, 5” for “resonance). Five”, “culture clones (Tables 1-3 and 1-4).” for “culture clones.”

[6] = system: LNA2-Bi; assay: Hybridoma antibody specificity immunoassay; conditions: hybridoma antibody subclones, Table 1-4
From the text: as §1, §2
as §1, with “From immunoreactive mice (2 animals selected),” for “From two selected animals,”, “antibody-producing fusion cells” for “antibody-producing hybridomas”
as §2, with “From two” for “In more detail, from two”, “binding properties” for “binding characterization”, “resonance). Finally, 5” for “resonance). Five”, “culture clones (Tables 1-3 and 1-4).” for “culture clones.”

[7] = system: LNA sequence (nucleotides/sequence of bases); assay: Epitope mapping solid phase immunoassay (ELISA); conditions: for Impact of LNA sequence: signal-to-noise (S/N) class
From the text: (§3) The epitope was mapped using immunoassays with capture molecules containing the following binding epitopes as well as combinations thereof: • LNA (2′-0,4-C-methylene), • phosphorothioate in the NA backbone, • nucleotides/sequence of bases, • DNA, • GalNAc-C6-modification.
(§4) The results of the epitope characterization of the antibodies according to the current invention by solid phase immunoassay (ELISA) using different biotinylated LNA, PS-backbone or DNA-containing NA-oligonucleotides as outlined above are shown in FIGS. 1 to 5.
(§5) The selected monoclonal LNA-specific Abs were further characterized for binding characteristics and epitope mapped by immunoassay using capture molecules containing the following binding epitopes and combinations thereof • LNA (2′-O.4-C-methylene) • phosphorothioate in the NA backbone • nucleotides/sequence of bases • DNA • GalNAc-C6-modification
(§6) The results of the antibody characterization by solid phase immunoassay (ELISA) using different biotinylated LNA, PS-backbone or DNA-containing NA-oligonucleotides are shown in FIGS. 1 to 5.

[8] = system: DNA; assay: Epitope mapping solid phase immunoassay (ELISA); conditions: signal-to-noise (S/N) class
From the text: as §3, §4, §5, §6

[9] = system: Phosphorothioate Backbone; assay: Epitope mapping solid phase immunoassay (ELISA); conditions: signal-to-noise (S/N) class
From the text: as §3, §4, §5, §6

[10] = system: LNA (2′-O,4-C-methylene); assay: Epitope mapping solid phase immunoassay (ELISA); conditions: signal-to-noise (S/N) class
From the text: as §3, §4, §5, §6

[11] = system: GalNAc-C6-modification; assay: Epitope mapping solid phase immunoassay (ELISA); conditions: signal-to-noise (S/N) class
From the text: as §3, §4, §5, §6

B1: 1.7.15 (antibody, V domains shown)
VH: QVQLKQSGPSFVQPSQSLSITCTVSGFSLTTYGVHWVRQSPGKGLEWLGVIWRSGGTDYNAAFMSRLSITKDNSKSQVFFKMNSLQTDDTAIYYCTNLYYWGQGTTLTVSS
VL: DIVMTQATFSNPVTLGTSVSISCRSSKSLLRSNGITYLYWYLQKPGQSPQLLIYQMSNLASGVPDRFSSSGSGTDFTLRISRVEAEDVGVYYCGQNLELPYTFGSGTKVEIK
- Signal DNA1-Bi [1]: 0.060 OD
- Signal LNA4b-Bi [2]: >4.000 OD
- Signal DNA4b-Bi [3]: 0.035 OD
- Signal DNA2-Bi [4]: 0.150 OD
- Signal LNA1-Bi [5]: 2.195 OD
- Signal LNA2-Bi [6]: 2.815 OD
- LNA sequence specificity [7]: LNA sequence specific binders

B2: 1.9.21 (antibody, V domains shown)
VH: QVQLQQSGAELVRPGTSVKVSCKASGYAFTNYLIEWIKQRPGQGLEWIGVINPGSGGTNYNEKFRVKATLTADKSSSTAYMQLSSLTSDDSAVYFCARGGGYYWGQGTLVTVSA
VL: DIVMTQAAPSVPVTPGESVSISCRSSKSLLHSNGNTYLFWFLQRPGQSPQVLIYRMSNLASGVPDRFSGSGSGTAFTLRISRVEAEDVGVYYCMQHLEYPYTFGSGTRLEIK
- Signal DNA1-Bi [1]: 0.064 OD
- Signal LNA4b-Bi [2]: 3.556 OD
- Signal DNA4b-Bi [3]: 0.110 OD
- Signal DNA2-Bi [4]: 0.039 OD
- Signal LNA1-Bi [5]: >4.000 OD
- Signal LNA2-Bi [6]: >4.000 OD
- LNA sequence specificity [7]: LNA sequence specific binders

B3: 1.2.8 (antibody, listed as Mus musculus, V domains shown)
VH: QIQLRESGPGLVAPSQSLSITCTVSGFSLTNYGVHWVRQPPGKGLEWLGVIWAGGSTIYNSALMSRLSISRDNSKSQVFLEMNSLQTYDTAMYYCARDRPFDGFFFSYWGQGTALTVSS
VL: DVLMTQTPLSLPVSLGDQASISCRSSQAIVHRSGNTFLEWYLQKPGQSPKLLIYKVSNRFSGVPDRFSGSGSGTDFTLKINRVEAEDLGVYYCFQGSHVPYTFGSGTKLEIK
- Signal DNA1-Bi [1]: 0.041 OD
- Signal LNA4b-Bi [2]: 1.916 OD
- Signal DNA4b-Bi [3]: 0.034 OD
- Signal DNA2-Bi [4]: 0.037 OD
- Signal LNA1-Bi [5]: 2.330 OD
- Signal LNA2-Bi [6]: 2.012 OD

B4: 1.4.10 (antibody, listed as Mus musculus, V domains shown)
VH: QIQLRESGPGLVAPSQSLSITCTVSGFSLVNYGIHWVRQPPGKGLEWLGVIWAGGSTIYNSALMSRLSISRDNSKNQVFLEMNSLQTYDTAMYYCARDRPFDGFFFSYWGQGTALTVSS
VL: DVLMTQTPLSLPVSLGDQASISCRSSQAIVHRSGNTFLEWYLQKPGQSPKLLIYKVSNRFSGVPDRFSGSGSGTDFTLKINRVEAEDLGVYYCFQGSHVPYTFGSGTKLEIK
- Signal DNA1-Bi [1]: 0.084 OD
- Signal LNA4b-Bi [2]: 2.977 OD
- Signal DNA4b-Bi [3]: 0.038 OD
- Signal DNA2-Bi [4]: 0.049 OD
- Signal LNA1-Bi [5]: 3.398 OD
- Signal LNA2-Bi [6]: 3.154 OD

B5: clone 1.2.8: anti-LNA monoclonal hybridoma antibody, VH SEQ ID NO: 30, VL SEQ ID NO: 39 (antibody, listed as Mus musculus, V domains shown)
VH: QIQLRESGPGLVAPSQSLSITCTVSGFSLTNYGVHWVRQPPGKGLEWLGVIWAGGSTIYNSALMSRLSISRDNSKSQVFLEMNSLQTYDTAMYYCARDRPFDGFFFSYWGQGTALTVSS
VL: DVLMTQTPLSLPVSLGDQASISCRSSQAIVHRSGNTFLEWYLQKPGQSPKLLIYKVSNRFSGVPDRFSGSGSGTDFTLKINRVEAEDLGVYYCFQGSHVPYTFGSGTKLEIK
- Reactivity to DNA [8]: − (−: S/N <2)
- Reactivity to Phosphorothioate Backbone [9]: +++ (+++: S/N ≥10)
- Reactivity to LNA (2′-O,4-C-methylene) [10]: − (−: S/N <2)
- Reactivity to GalNAc-C6-modification [11]: − (−: S/N <2)
- Impact of LNA sequence [7]: − (−: S/N <2)

B6: clone 1.4.10: anti-LNA monoclonal hybridoma antibody, VH SEQ ID NO: 65, VL SEQ ID NO: 73 (antibody, listed as Mus musculus, V domains shown)
VH: QIQLRESGPGLVAPSQSLSITCTVSGFSLVNYGIHWVRQPPGKGLEWLGVIWAGGSTIYNSALMSRLSISRDNSKNQVFLEMNSLQTYDTAMYYCARDRPFDGFFFSYWGQGTALTVSS
VL: DVLMTQTPLSLPVSLGDQASISCRSSQAIVHRSGNTFLEWYLQKPGQSPKLLIYKVSNRFSGVPDRFSGSGSGTDFTLKINRVEAEDLGVYYCFQGSHVPYTFGSGTKLEIK
- Reactivity to DNA [8]: − (−: S/N <2)
- Reactivity to Phosphorothioate Backbone [9]: +++ (+++: S/N ≥10)
- Reactivity to LNA (2′-O,4-C-methylene) [10]: − (−: S/N <2)
- Reactivity to GalNAc-C6-modification [11]: − (−: S/N <2)
- Impact of LNA sequence [7]: + (+: S/N: 3 to 5)

B7: clone 1.5.13: anti-LNA monoclonal hybridoma antibody, VH SEQ ID NO: 81, VL SEQ ID NO: 89 (antibody, listed as Mus musculus, V domains shown)
VH: QVQLKESGPGLVAPSQSLSITCTISGFSLTTYGVHWVRQPPGMGLEWLVVIWGDGSTTYNSALRSRLSISKDNSRSQVFLKMNSLQTDDTAMYYCARHGGRYALDYWGQGTSVTVSS
VL: DIVMTQSPATLSVTPGDRVSLSCRASQSIGGYLHWYQQKSHESPRLLIKYASQSMSGIPPRFSGSGSGSDFTLSINSVAPEDVGVYYCQAGHTFPLTFGAGTKL
- Reactivity to DNA [8]: − (−: S/N <2)
- Reactivity to Phosphorothioate Backbone [9]: +++ (+++: S/N ≥10)
- Reactivity to LNA (2′-O,4-C-methylene) [10]: − (−: S/N <2)
- Reactivity to GalNAc-C6-modification [11]: − (−: S/N <2)
- Impact of LNA sequence [7]: −/+ (−/+: S/N: 2 to 3)

B8: clone 1.7.15: anti-LNA monoclonal hybridoma antibody, VH SEQ ID NO: 12, VL SEQ ID NO: 21 (antibody, listed as Mus musculus, V domains shown)
VH: QVQLKQSGPSFVQPSQSLSITCTVSGFSLTTYGVHWVRQSPGKGLEWLGVIWRSGGTDYNAAFMSRLSITKDNSKSQVFFKMNSLQTDDTAIYYCTNLYYWGQGTTLTVSS
VL: DIVMTQATFSNPVTLGTSVSISCRSSKSLLRSNGITYLYWYLQKPGQSPQLLIYQMSNLASGVPDRFSSSGSGTDFTLRISRVEAEDVGVYYCGQNLELPYTFGSGTKVEIK
- Reactivity to DNA [8]: − (−: S/N <2)
- Reactivity to Phosphorothioate Backbone [9]: +++ (+++: S/N ≥10)
- Reactivity to LNA (2′-O,4-C-methylene) [10]: − (−: S/N <2)
- Reactivity to GalNAc-C6-modification [11]: − (−: S/N <2)
- Impact of LNA sequence [7]: +++ (+++: S/N ≥10)

B9: clone 1.9.21: anti-LNA monoclonal hybridoma antibody, VH SEQ ID NO: 48, VL SEQ ID NO: 57 (antibody, listed as Mus musculus, V domains shown)
VH: QVQLQQSGAELVRPGTSVKVSCKASGYAFTNYLIEWIKQRPGQGLEWIGVINPGSGGTNYNEKFRVKATLTADKSSSTAYMQLSSLTSDDSAVYFCARGGGYYWGQGTLVTVSA
VL: DIVMTQAAPSVPVTPGESVSISCRSSKSLLHSNGNTYLFWFLQRPGQSPQVLIYRMSNLASGVPDRFSGSGSGTAFTLRISRVEAEDVGVYYCMQHLEYPYTFGSGTRLEIK
- Reactivity to DNA [8]: − (−: S/N <2)
- Reactivity to Phosphorothioate Backbone [9]: +++ (+++: S/N ≥10)
- Reactivity to LNA (2′-O,4-C-methylene) [10]: ++ (++: S/N: 5 to 10)
- Reactivity to GalNAc-C6-modification [11]: − (−: S/N <2)
- Impact of LNA sequence [7]: +++ (+++: S/N ≥10)
